Assay results as given in publication PMC6262902, “Characterization of a New Cyclohexylamine Oxidase From Acinetobacter sp. YT-02” (Frontiers in Microbiology, 2018).

Legend:
[1] = target: cyclohexylamine oxidase from Acinetobacter sp. YT-02 (Acinetobacter sp. YT-02); test: SEC; gel filtration on Superose 6 Increase 10/300GL; 10 mM phosphate buffer, pH 7.4, 140 mM NaCl; calibrated with apoferritin (443 kDa), alcohol dehydrogenase (150 kDa), bovine albumin (66 kDa), carbonic anhydrase (29 kDa)
[2] = substrate: NC1CCCCC1; test: purified protein; assay type: biochemical, Acinetobacter sp. YT-02; settings: 50 °C, pH 7.0 sodium phosphate

| Molecule | stoichiometry N [1] | Km [2] | Vmax [2] | kcat [2] | kcat/Km [2] |
| --- | --- | --- | --- | --- | --- |
| cyclohexylamine oxidase from Acinetobacter sp. YT-02 (enzyme) | 2 |  |  |  |  |
| CHAOYT–02 (Acinetobacter sp. YT-02) (protein, full-length ORF of 460 residues, no signal peptide; pET-28b 6xHis tag and vector residues kept (53,534 Da with tag); E. coli BL21 (DE3); dimer about 91 kDa; FAD enzyme) MSVNDNRESASYDADVIVVGAGPSGSYAAKLLHDRGISVKLVEAKDRVGGRTWSSKTEAQGGPIDFGGQWIGETHVLLPELGEELGLETVSSIKPGNDIFVFNGQVTVGEEDQAPASASWTAELTRSFELLDEAGARLGWEAPWASPAVEALDGMTVAQWLDENVSSDEVRMIHEVMVNILNGANTTEVSMAYWAYFVHQGEGIESLIGTRSGAQIAWFVGGMGQVTELIADRLGDNLHLNWPVTSIEQQDSGVVVSSGDRRLTAKYVILATPPSDASRMIFDQPLPAKRAQLQARAPMGRLAKIQVRYRDAFWQEENLSGAAFVCGDLAFWVFDGSKPSDSLATIVGFIGGKHLDLWHSFTPEEREARFIDMLVTNIGEKARDTVYYHETDWTEQPWTGGAPVTFMPTGLLSSSGSALRGSAGRIHFAGTEAAPMWSGYIEGALRAGKIAATDIIARLG |  | 250 ± 20 µM | 4300 µM/min | 523 ± 10 s⁻¹ | 2.08e+06 M⁻¹ s⁻¹ |
